Earlier results on four substances are cited in publication PMC3433420.

Where two headings read alike, the source gives them in different places.

Common to all, as to conditions: cited from earlier work
Series [1] addresses PLCG1-NC (Homo sapiens) (UniProt P19174).
For series [2], the target named is LYN (Homo sapiens) (UniProt P07948).
For series [3], the target named is VAV3 (Homo sapiens) (UniProt Q9UKW4).
Series [4] deals with TENC1 (Homo sapiens) (UniProt Q63HR2).
The target in series [5] is NCK2 (Homo sapiens) (UniProt O43639).
Series [6] concerns the target TNS3 (Homo sapiens) (UniProt Q68CZ2).
For series [7], the target named is HSH2D (Homo sapiens) (UniProt Q96JZ2).
Series [8] has as its target VAV2 (Homo sapiens) (UniProt P52735).
Series [9] deals with SYK-NC (Homo sapiens) (UniProt P43405).
Series [10] addresses SH2D3A (Homo sapiens) (UniProt Q9BRG2).
Series [11] concerns the target RASA1-NC (Homo sapiens) (UniProt P20936).
In series [12] the target is PIK3R2-N (Homo sapiens) (UniProt O00459).
Series [13] has the same target. This is another data set of the same source.
The target in series [14] is SH2D3A (Homo sapiens) (UniProt Q9BRG2). This is another data set of the same source.
Series [15] concerns the target VAV3 (Homo sapiens) (UniProt Q9UKW4). The source holds these as a separate data set.
In series [16] the target is SRC (Homo sapiens) (UniProt P12931).
Series [17] addresses VAV2 (Homo sapiens) (UniProt P52735). This is another data set of the same source.
For series [18], the target named is TEC (Homo sapiens) (UniProt P42680).
Series [19] addresses RASA1-C (Homo sapiens) (UniProt P20936).
In series [20] the target is BLK (Homo sapiens) (UniProt P51451).
The target in series [21] is SH2B3 (Homo sapiens) (UniProt Q9UQQ2).
For series [22], the target named is VAV3 (Homo sapiens) (UniProt Q9UKW4). This is another data set of the same source.
For series [23] the target is unchanged. This is another data set of the same source.
In series [24] the target is RASA1-N (Homo sapiens) (UniProt P20936).
In series [25] the target is TENC1 (Homo sapiens) (UniProt Q63HR2). This is another data set of the same source.
Series [26] deals with SOCS1 (Homo sapiens) (UniProt O15524).
Series [27] deals with NCK1 (Homo sapiens) (UniProt P16333).
The target in series [28] is PLCG2-N (Homo sapiens) (UniProt P16885).
The target in series [29] is SOCS6 (Homo sapiens) (UniProt O14544).
Series [30] deals with SRC (Homo sapiens) (UniProt P12931). The source holds these as a separate data set.
Series [31] addresses SH2D3C (Homo sapiens) (UniProt Q8N5H7).

VAV3 (Homo sapiens), sequence (Q9UKW4 667-771): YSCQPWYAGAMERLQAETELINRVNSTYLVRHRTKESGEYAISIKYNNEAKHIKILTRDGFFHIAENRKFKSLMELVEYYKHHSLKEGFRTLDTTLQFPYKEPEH
PIK3R2-N (Homo sapiens), sequence (O00459 325-721): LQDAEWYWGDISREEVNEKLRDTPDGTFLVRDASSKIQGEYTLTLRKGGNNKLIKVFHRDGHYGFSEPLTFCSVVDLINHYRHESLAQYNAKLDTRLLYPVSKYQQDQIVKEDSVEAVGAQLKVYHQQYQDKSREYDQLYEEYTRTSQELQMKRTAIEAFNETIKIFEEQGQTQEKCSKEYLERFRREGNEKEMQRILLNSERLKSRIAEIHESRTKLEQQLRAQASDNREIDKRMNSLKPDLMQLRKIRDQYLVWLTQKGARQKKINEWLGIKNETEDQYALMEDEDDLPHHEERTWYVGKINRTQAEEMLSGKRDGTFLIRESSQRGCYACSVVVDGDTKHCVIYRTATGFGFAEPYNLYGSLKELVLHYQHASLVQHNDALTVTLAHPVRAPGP
TENC1 (Homo sapiens), sequence (Q63HR2 1135-1252): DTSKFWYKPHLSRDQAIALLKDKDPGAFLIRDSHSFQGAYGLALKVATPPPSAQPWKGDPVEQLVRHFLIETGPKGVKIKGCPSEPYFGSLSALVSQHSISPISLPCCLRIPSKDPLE
SH2D3A (Homo sapiens), sequence (Q9BRG2 10-119): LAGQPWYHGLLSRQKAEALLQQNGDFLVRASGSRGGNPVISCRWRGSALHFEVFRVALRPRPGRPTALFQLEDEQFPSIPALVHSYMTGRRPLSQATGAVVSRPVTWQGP
VAV2 (Homo sapiens), sequence (P52735 668-772): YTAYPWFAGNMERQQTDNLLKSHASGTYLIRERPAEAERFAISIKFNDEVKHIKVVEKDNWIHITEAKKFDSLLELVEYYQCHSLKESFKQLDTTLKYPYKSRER
TNS3 (Homo sapiens), sequence (Q68CZ2 1167-1287): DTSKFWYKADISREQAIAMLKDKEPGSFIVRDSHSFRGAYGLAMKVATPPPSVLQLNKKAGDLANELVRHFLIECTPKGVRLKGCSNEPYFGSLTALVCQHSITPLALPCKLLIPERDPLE
SOCS1 (Homo sapiens), sequence (O15524 74-179): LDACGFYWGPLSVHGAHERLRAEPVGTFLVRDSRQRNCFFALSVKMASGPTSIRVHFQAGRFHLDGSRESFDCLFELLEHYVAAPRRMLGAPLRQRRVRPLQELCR
RASA1-N (Homo sapiens), sequence (P20936 176-446): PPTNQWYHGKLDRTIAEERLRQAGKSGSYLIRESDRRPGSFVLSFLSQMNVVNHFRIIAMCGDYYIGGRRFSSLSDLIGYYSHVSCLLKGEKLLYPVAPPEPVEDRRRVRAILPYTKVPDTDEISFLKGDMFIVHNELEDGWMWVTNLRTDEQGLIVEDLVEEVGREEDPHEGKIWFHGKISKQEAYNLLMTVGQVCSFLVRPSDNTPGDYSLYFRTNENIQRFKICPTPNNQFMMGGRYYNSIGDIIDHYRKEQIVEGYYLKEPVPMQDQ
RASA1-NC (Homo sapiens), sequence (P20936 176-446): as above
RASA1-C (Homo sapiens), sequence (P20936 176-446): as above
BLK (Homo sapiens), sequence (P51451 119-225): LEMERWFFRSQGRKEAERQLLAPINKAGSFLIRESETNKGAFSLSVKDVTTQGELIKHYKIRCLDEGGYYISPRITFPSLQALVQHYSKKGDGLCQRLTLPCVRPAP
SOCS6 (Homo sapiens), sequence (O14544 379-496): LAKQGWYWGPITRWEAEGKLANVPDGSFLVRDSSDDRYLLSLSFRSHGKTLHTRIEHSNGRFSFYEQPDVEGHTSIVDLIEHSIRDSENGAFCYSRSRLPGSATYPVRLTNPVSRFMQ
NCK2 (Homo sapiens), sequence (O43639 280-380): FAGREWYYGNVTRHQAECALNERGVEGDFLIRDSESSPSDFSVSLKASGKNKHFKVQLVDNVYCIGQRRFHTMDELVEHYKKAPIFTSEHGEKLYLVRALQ
SH2D3C (Homo sapiens), sequence (Q8N5H7 215-324): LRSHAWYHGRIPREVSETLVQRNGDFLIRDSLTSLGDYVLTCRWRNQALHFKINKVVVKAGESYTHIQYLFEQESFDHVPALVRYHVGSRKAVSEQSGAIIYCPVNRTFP
TEC (Homo sapiens), sequence (P42680 242-350): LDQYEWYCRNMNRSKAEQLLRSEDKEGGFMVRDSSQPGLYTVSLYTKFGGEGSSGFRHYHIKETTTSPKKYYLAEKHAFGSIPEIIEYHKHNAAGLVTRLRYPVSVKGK
PLCG1-NC (Homo sapiens), sequence (P19174 545-761): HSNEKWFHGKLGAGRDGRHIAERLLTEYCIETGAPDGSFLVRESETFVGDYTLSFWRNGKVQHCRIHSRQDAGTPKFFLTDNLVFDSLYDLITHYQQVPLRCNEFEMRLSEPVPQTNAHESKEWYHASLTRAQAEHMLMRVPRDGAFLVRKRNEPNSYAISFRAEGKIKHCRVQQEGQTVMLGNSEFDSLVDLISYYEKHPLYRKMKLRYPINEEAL
SH2B3 (Homo sapiens), sequence (Q9UQQ2 359-467): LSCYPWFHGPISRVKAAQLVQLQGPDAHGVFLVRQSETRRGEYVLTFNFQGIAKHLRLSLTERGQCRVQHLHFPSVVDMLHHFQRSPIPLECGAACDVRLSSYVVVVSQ
PLCG2-N (Homo sapiens), sequence (P16885 527-740): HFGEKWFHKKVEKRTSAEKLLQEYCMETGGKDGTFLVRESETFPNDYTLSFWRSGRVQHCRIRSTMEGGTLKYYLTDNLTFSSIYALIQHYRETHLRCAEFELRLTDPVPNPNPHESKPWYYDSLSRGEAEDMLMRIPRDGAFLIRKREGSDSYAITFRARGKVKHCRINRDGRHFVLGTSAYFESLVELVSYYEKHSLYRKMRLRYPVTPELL
LYN (Homo sapiens), sequence (P07948 124-231): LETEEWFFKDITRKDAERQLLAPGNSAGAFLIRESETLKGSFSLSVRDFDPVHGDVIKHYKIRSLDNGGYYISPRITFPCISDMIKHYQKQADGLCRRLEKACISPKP
HSH2D (Homo sapiens), sequence (Q96JZ2 29-130): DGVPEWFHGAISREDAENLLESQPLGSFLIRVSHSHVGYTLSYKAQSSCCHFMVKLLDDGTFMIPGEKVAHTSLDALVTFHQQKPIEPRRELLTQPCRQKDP

As for …pYEEMRAFQ, the apparent Kd (screen) was 499 nM in [1]; 340 nM in [2]; 2000 nM in [3]; 2000 nM in series [4]; 1370 nM in series [5]; 639 nM in series [6]. The apparent Kd (screen) in series [7] and in [8] was 2000 nM throughout.
As to …pYLIPQQGFd, the apparent Kd (screen) in [9] was 611 nM; in [10], 2000 nM; in series [11], 1420 nM; in [12] it was 424 nM; in series [13] it was 425 nM.
Regarding …pYLVPQQGF, the apparent Kd (screen) was 2000 nM in series [14]; 2000 nM in series [15]; 757 nM in [16]; 2000 nM in series [17]; 2000 nM in series [18].
Turning to …pYWDQDPPE, the apparent Kd (screen) is 2000 nM in series [19]; 2000 nM in series [20]; 2000 nM in [21]; 1120 nM in series [22]; 2000 nM in series [23]; 504 nM in [24]. Besides, the apparent Kd (screen) in [25] was 843 nM; in series [26], 1920 nM; in series [27] it was 2000 nM; in [28], 2000 nM; in series [29], 2000 nM; in series [30] it was 196 nM. Further, the apparent Kd (screen) in series [31] was 705 nM.
